Reference: US20030158083A1, “Method of effecting angiogenesis by modulating the function of a novel endothelia phosphatase” (The Procter & Gamble Company, priority 2002, published 2003)

Experiments:
[1] = target: T1, human VEGF receptor-1 (Homo sapiens, UniProt P17948); assay: GST pull-down association assay, VEGFR-1; format: binding; conditions: HEK 293 lysate expressing His-tagged full-length KAPh
T1 construct: the intracellular domain of each receptor tyrosine kinase was generated as an in-frame GST fusion; made in house; host or cells: Sf9 insect cells (baculovirus)
T1 sequence (P17948 781-1338 limits assumed): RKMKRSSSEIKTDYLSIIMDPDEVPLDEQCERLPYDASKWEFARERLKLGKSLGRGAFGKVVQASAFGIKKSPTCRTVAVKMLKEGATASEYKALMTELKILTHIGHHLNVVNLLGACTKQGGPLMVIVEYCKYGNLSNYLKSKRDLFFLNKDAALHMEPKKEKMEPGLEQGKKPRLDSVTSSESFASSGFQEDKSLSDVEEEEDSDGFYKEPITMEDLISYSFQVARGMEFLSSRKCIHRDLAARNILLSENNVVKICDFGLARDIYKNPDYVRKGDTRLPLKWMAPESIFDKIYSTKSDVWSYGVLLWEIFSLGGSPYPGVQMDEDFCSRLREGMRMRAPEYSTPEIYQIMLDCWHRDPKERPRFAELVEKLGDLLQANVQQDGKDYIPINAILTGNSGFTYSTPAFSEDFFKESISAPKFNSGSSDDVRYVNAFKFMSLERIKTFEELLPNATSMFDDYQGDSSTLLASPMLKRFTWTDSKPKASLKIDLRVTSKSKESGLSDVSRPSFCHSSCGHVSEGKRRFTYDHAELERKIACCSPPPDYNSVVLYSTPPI
Text: Recombinant VEGFR-1 kinase (wild-type and K862R mutant), VEGFR2 kinase (wild-type and K870R mutant), Tie1 kinase (wild-type and K871R mutant), and Tie2 kinase (wild-type and K856R mutant) were expressed as glutathione S-transferase (GST) fusion proteins in Sf9 cells using a baculovirus expression system. Briefly, the intracellular domain of each receptor tyrosine kinase was generated as an in-frame GST fusion using the pAcGHLT baculovirus transfer vector (Pharmingen, San Diego, Calif.). Each baculovirus transfer vector construct was cotransfected with BaculoGold (Pharmingen, San Diego, Calif.) linearized AcNPV baculovirus DNA into Sf9 cells for the generation of recombinant baculoviruses. Five days post-transfection, recombinant baculoviruses were harvested and amplified by re-infection of Sf9 cells. Each amplified baculovirus was then used to infect Sf9 cells for the expression of the recombinant kinases. […]
The immobilized, autophosphorylated kinases were then incubated with HEK 293 cell lysates which overexpressed either the KAPh SH2 domain or KAPh full-length protein. […] KAPh protein that associated with the recombinant kinases was analyzed by Western blot using a chemiluminescence detection system (Amersham Pharmacia, Piscataway, N.J.).

[2] = target: T2, VEGF receptor-2 (Homo sapiens, UniProt P35968); assay: Co-immunoprecipitation with VEGF receptor-2 in HEK 293 cells; format: cell-based; conditions: HEK 293 VEGFR2 stable cells, 1 nM VEGF 5 min or untreated, anti-VEGFR2 IP
T2 construct: Co-immunoprecipitation of full-length KAPh with full-length VEGF receptor-2; expressed in transfected cells
T2 sequence (P35968 20-1356): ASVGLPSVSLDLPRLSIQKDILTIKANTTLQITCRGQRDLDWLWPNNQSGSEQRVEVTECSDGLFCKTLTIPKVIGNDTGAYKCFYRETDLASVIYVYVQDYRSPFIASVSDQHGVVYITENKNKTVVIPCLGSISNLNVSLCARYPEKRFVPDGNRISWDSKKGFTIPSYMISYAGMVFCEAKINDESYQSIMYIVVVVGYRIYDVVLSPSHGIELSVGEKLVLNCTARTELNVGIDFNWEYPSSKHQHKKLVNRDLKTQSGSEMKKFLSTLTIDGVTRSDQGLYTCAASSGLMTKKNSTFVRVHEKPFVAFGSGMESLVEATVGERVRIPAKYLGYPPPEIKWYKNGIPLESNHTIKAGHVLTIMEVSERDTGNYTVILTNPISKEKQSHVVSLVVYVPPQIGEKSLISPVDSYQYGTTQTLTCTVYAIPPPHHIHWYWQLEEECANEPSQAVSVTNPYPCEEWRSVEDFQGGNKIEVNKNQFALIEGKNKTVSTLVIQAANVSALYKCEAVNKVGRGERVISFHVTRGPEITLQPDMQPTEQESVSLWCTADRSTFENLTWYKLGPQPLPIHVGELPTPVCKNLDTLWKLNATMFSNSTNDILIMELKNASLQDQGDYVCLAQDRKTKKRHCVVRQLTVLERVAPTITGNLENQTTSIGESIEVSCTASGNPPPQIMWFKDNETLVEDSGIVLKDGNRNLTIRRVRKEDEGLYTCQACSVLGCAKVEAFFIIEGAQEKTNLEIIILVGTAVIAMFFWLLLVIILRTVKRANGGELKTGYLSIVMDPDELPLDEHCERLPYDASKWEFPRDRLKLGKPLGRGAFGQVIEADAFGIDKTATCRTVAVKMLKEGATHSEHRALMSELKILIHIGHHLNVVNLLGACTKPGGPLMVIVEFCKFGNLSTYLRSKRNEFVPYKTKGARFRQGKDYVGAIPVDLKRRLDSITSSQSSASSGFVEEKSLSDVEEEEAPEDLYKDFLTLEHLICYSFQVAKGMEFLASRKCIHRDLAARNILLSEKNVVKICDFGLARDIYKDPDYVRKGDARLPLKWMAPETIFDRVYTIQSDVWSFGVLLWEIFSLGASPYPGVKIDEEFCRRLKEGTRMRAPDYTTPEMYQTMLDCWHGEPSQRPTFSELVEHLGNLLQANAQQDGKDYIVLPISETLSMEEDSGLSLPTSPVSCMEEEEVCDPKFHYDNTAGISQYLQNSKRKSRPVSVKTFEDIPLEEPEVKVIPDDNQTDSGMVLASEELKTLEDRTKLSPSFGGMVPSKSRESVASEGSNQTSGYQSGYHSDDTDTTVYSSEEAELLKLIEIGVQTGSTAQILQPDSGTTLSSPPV
Description: Human umbilical vein endothelial cells (HUVEC) obtained from Clonetics (Walkersville, Md.) were cultured in endothelial growth medium (Clonetics) and were used up to passage 3. HEK 293 cells obtained from the American Type Culture Collection (Manasses, Va.) were cultured in cell growth medium (Dulbecco's modified Eagle's medium supplemented with 10% fetal bovine serum, 1% L-glutamine, 1% nonessential amino acids, and 1% antimycotics). For stable expression, hVEGFR2 was subcloned into pLNCX (Clontech, Palo Alto, Calif.), […] transfected into HEK 293 cells, and selected in the presence of Geneticin. The HEK 293 VEGFR2 clonal cell line was transiently transfected with either the SH2 domain or full-length KAPh in the mammalian expression vector pcDNA4/HisMax (Invitrogen, Carlsbad, Calif.). All constructs were transfected using LipofectAMINE PLUS (Life Technologies, Rockville, Md.) in serum-free DMEM according to the manufacturer's instructions.
HEK 293 cells that stably expressed the VEGF receptor-2 were transiently transfected to express the KAPh SH2 domain or full-length KAPh were treated with 1 nM VEGF or left untreated for 5 min. The cells were lysed in 1% triton lysis buffer with protease inhibitors. Insoluble debris was removed from the lysates by centrifugation at 14,000×g for 10 min at 4° C. […]

co-immunoprecipitation with VEGFR2 [2]: detected in cells stimulated with VEGF
B1: KAPh: novel human KDR Associated Phosphatase protein, full-length sequence SEQ ID NOS 1 and 2 (protein, listed as Homo sapiens)
chain: MKPRKAEPHSFREKVFRKKPPVCAVCKVTIDGTGVSCRVCKVATHRKCEAKVTSACQALPPVELRRNTAPVRRIEHLGSTKSLNHSKQRSTLPRSFSLDPLMERRWDLDLTYVTERILAAAFPARPDEQRHRGHLRELAHVLQSKHRDKYLLFNLSEKRHDLTRLNPKVQDFGWPELHAPPLDKLCSICKAMETWLSADPQHVVVLYCKGNKGKLGVIVSAYMHYSKISAGADQALATLTMRKFCEDKVATELQPSQRRYISYFSGLLSGSIRMNSSPLFLHYVLIPMLPAFEPGTGFQPFLKIYQSMQLVYTSGVYHIAGPGPQQLCISLEPALLLKGDVMVTCYHKGGRGTDRTLVFRVQFHTCTIHGPQLTFPKDQLDEAWTDERFPFQASVEFVFSSSPEKIKGSTPRNDPSVSVDYNTTEPAVRWDSYENFNQHHEDSVDGSLTHTRGPLDGSPYAQVQRPPRQTPPAPSPEPPPPPMLSVSSDSGHSSTLTTEPAAESPGRPPPTAAERQELDRLLGGCGVASGGRGAGRETAILDDEEQPTVGGGPHLGVYPGHRPGLSRHCSCRQGYREPCGVPNGGYYRPEGTLERRRLAYGGYEGSPQGYAEASMEKRRLCRSLSEGLYPYPPEMGKPATGDFGYRAPGYREVVILEDPGLPALYPCPACEEKLALPTAALYGLRLEREAGEGWASEAGKPLLHPVRPGHPLPLLLPACGHHHAPMPDYSCLKPPKAGEEGHEGCSYTMCPEGRYGHPGYPALVTYSYGGAVPSYCPAYGRVPHSCGSPGEGRGYPSPGAHSPRAGSISPGSPPYPQSRKLSYEIPTEEGGDRYPLPGHLASAGPLASAESLEPVSWREGPSGHSTLPRSPRDAPCSASSELSGPSTPLHTSSPVQGKESTRRQDTRSPTSAPTQRLSPGEALPPVSQAGTGKAPELPSGSGPEPLAPSPVSPTFPPSSPSDWPQERSPGGHSDGASPRSPVPTTLPGLRHAPWQGPRGPPDSPDGSPLTPVPSQMPWLVASPEPPQSSPTPAFPLAASYDTNGLSQPPLPEKRHLPGPGQQPGPWGPEQASSPARGISHHVTFAPLLSDNVPQTPEPPTQESQSNVKFVQDTSKFWYKPHLSRDQAIALLKDKDPGAFLIRDSHSFQGAYGLALKVATPPPSAQPWKGDPVEQLVRHFLIETGPKGVKIKGCPSEPYFGSLSALVSQHSISPISLPCCLRILSKDPLEETPEAPVPTNMSTAADLLRQGAACSVLYLTSVETESLTGPQAVARASSAALSCSPRPTPAVVHFKVSAQGITLTDNQRKLFFRRHYPVNSITFSSTDPQDRRWTNPDGTTSKIFGFVAKKPGSPWENVCHLFAELDPDQPAGAIVTFITKVLLGQRK
interaction with GST VEGFR-1, wild-type versus K862R [1]: weak, but reproducible, autophosphorylation-dependent interaction
